{"source": "paper PMC2942843", "data": [{"target": "T1, CbbR (His6-CbbR) (Acidithiobacillus ferrooxidans ATCC 23270) (UniProt B7JB31)", "T1 sequence": "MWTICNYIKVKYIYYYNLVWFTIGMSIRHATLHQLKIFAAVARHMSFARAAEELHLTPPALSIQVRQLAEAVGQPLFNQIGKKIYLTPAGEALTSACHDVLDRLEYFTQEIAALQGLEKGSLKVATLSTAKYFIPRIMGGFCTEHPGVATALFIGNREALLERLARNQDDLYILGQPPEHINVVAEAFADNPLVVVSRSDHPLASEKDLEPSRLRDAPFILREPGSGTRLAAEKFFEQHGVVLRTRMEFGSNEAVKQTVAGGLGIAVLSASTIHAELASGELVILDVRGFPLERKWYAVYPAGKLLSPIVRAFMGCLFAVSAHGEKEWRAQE", "test": "EMSA", "conditions": "12 mM HEPES-NaOH pH 7.9, 4 mM Tris-HCl pH 7.9, 1 mM EDTA, 60 mM KCl, 1 mM DTT, 10% glycerol, 5 ug/ul BSA, 2 ug/ul poly(dI-dC), 30 C, 15 min, 20 pmol DNA", "values": [{"sequence": "CGGCAGCGAAGATCTTGAGTTGGTGCAAGGTTGCATGACGGATAGACATGCCAATAGTAAACCATACTAAATTATAATAGTAAATATATTTTACTTTTATATAGTTACAGATCGTCCACAATGCTACCCAAGCATTGGAACCTGGCAGGTGGCTCCAATCACCATCGTCTACCATGACACAAGGAGAGCAAGCATGGCCGTAAAAAAGTATGAGGCCGGAG (double strand) [Pcbb1 (cbb1 operon promoter region)]", "binding": "binds"}, {"sequence": "CATTGAACAGGGTCAGCTCCTGGCCATGGCGGGCGCGCAACACCTTGAGCAGATGATGGCTGGCACCTGCCGGCAGCAAAAAGGGGCCGCTTTCGGGCAGGTCGGAATCGGCGTATAAGTGAATGCGCGGCATAGGTTACGATATCGGGCAGGAGAACACAGGTGGGATTATATCATCGTGGCGCTGGCGCAGGTGGCGCATGATCAAAGACTCCGAT (double strand) [Pcbb3 (cbb3 operon promoter region)]", "binding": "binds"}, {"sequence": "TTTGGGGTGGCAGCAAGAAGTCCTCCTTTCCGGTAGTTGGCCCGGCGCGCTCTTGAGGCCGCACATCCGCCCCGCTTGAGCCAATTTTGCCTTTGCGGTGAGCGGGTTTCACTTCGCTTGTGGCGCTTTCCTTTGATATAGTGCGCGCTGTCCCTGTCGCGCTGCGACAGGTCGGCCTAGCTATTGAGGAGCCCAGTGCATGTCCAAAAGTCATCTTTTCACCTCTGAATCCGTTTCC (double strand) [Pcbb4 (cbb4 operon promoter region)]", "binding": "no binding"}, {"sequence": "ACGACGGCGGCAAGCACCGCCAACCACCGAACATCAGACGCGTAGTCACAAACCACCATCACATCAGTGATACGTTATTGAAAAAATAATAACTACTTATTAGCGCTTATGATTCACCCGCACTATAGTTCGATCATCGCTGCAGACGCAGCGATTGCGCCGGGGGCACCGGCGTCGGGCAACTGCATGGAGGTGGCATATGGCCGTCAAGACCTATAACGCGGGTGTGAAGGATTACCGG (double strand) [Pcbb2 (cbb2 operon promoter region)]", "binding": "binds"}]}]}
